Experiment: soluble on expression in E. coli; label from the status in PepcDB or PDB records

Sequence | soluble on expression in E. coli
MGSDKIHHHHHHMEDNDWKLLKIIEISMKNHEWVPIQDLRRKTGFHEKEIVFRLGRLNKFKFTNKSNYGYRLSHWGYDALAMNAFIKKELIAGIGGKVGVGKEGDVYHVLLTNHREAVLKFHQLGRTCFSMGKRYREYLANKRHISWLYASRLTAAREFEVLNMLFPVVKVPEPIEQNRHAIIMGKLHGEELKRVNLLEINVDPEEFFWKLMVEVKKTYKLGIIHGDLSEFNILIDSEGDFVIIDWPQAIEVGKKGKLDKLPFEEVEYDEEFYLKRDIENVVRYFKKYGIDKDIDKLYNYVIGDITSENI | not soluble
MTVIALRHLGPAERKSFARHLAGGDFPGKGAWDDGTVVLDRVLDGLGDEAGRALIEGALAKASRMVVVTLGGEAAARWTPEVLGPAFVYLLGEAIDADSPAVALAFLDGPGRPRLFAPRFSVMVPVYNHRDLIGACLDSIAAQSWPLWEAVVVDDGSTDGVATLLTERAAADPRLRWSSQANGGTGAALNACLAMAREEWIAWLSSDDLFAPDKLAAHAALLRRDGLAPAFHHTAVIRRNDAGEEQVVAPLGPLMTGSAGLRRLAMTSVNLIQGISIVVHRDLFAQTAGFDPRNRFTQDYAMWVRLMERTDPVYLPLVTAVTRVGAAQTTARHYQRTRAEAIAAILGALRDFSAGAPDDREARLEAVAALVMLASSPHGFLARYGLQGWYVARAMGLAAEAKVLGATFADVSARLGPWSVGHIHDPQAMGHLAMIESVFREDKAAAPIDPFRILTRMLISPTIPADLAEAITGFLRGDLPQPLEHHHHHH | not soluble
MGHHHHHHSHMMEGLDDGPDFLSEEDRGLKAINVDLQSDAALQVDISDALSERDKVKFTVHTKSSLPNFKQNEFSVVRQHEEFIWLHDSFVENEDYAGYIIPPAPPRPDFDASREKLQKLGEGEGSMTKEEFTKMKQELEAEYLAIFKKTVAMHEVFLCRVAAHPILRRDLNFHVFLEYNQDLSVRGK | not soluble
MSLNYLSGQAANPRGIIGEITTKIWSSYFEDLSKWTINNTEMAGVTKVLDVGYGGGSNVKNLVNLDQNLTIYGIDISKESYKTASALNKKAISDGKVKLTVADVADMDYREESFDLVYAIQTHMYWDNLQKGFEEIYRVMSQEGVLILSSEKDKIDYHMDEYKTTASLTALLKEIGFREVVEKEKGNWVLYTVKKEGHHHHHH | soluble
MAHHHHHHMTVKNAAKSGKYVWHAMPEEVRKSLKRGSVDETNGIKMGKKGTHATPSEPIYMEVPPDETQRKEKSPPRGMALPHVSTPNEKQPTPMPGETTNSGDVVVSQESGCVGVTHGTQSLSSSRTLKTKHVLHFRGPGWEKVLRKNKKGLESAFKKDVFEATGLEARRIEELKFEFASMLIVTFVVRRENDDEGTSKLHSDLQACAFPRTVLLYRN | soluble
MAGKPKLHYFNGRGRMEPIRWLLAAAGVEFEEKFIGSAEDLGKLRNDGSLMFQQVPMVEIDGMKLVQTRAILNYIASKYNLYGKDIKERALIDMYTEGMADLNEMILLLPLCRPEEKDAKIALIKEKTKSRYFPAFEKVLQSHGQDYLVGNKLSRADISLVELLYYVEELDSSLISNFPLLKALKTRISNLPTVKKFLQPGSPRKPPADAKALEEARKIFRF | soluble
MQGSVTEFLKPRLVDIEQISTTHAKVTLEPLERGFGHTLGNALRRILLSSMPGCAVTEVEIEGVLHEYSTKEGVQEDILEILLNLKGLAVRVAEGKDEVFITLNKSGSGPVVAGDITHDGDVEIVNPEHVICHLTSDNAAIAMRIKVERGRGYVPASARIHTEEDERPIGRLLVDATFSPVDKIAYSVEAARVEQRTDLDKLVIDMETNGTLEPEEAIRRAATILAEQLDAFVDLRDVRVPEEKEEKPEFDPILLRPVDDLELTVRSANCLKAEAIHYIGDLVQRTEVELLKTPNLGKKSLTEIKDVLASRGLSLGMRLENWPPASIAED | soluble
MKVTFMNLEERKKLETKSIDELDLIGKKVCVDTCVVIDGRITELIERGKLKDATIIIPEAVVSELEYQANMGREIGYKGIEELRKLIEKASEHNIKVEYYGERPTREEIFLAKSGEIDAMIRKVAKETNSILLTSDWIQYNLAKAQGIEAYFLEAAEEEVELVLD | not soluble
MDSLPTSATNGPAGLSAEADAEPHARLTFDLDVDLCVIGAGLAGLSVALEAAQAGLSVAVLESGRIGWGASGHNLGSVTPGYGVPIGDLIARVGLDHASALWALTREGMEIVRARATEEAMPGVALSDGALEVSNVDIGDRLVERLQTLGVDFGSEVEGWPIDKVRDVLRTNRYFHGIHYPTAFQLDGRRYLRGLERLARQAGARIFEETPAVSIDFAGIRKRISTPNARLRASDIVLAGSVHLGAPSPRVAETLLPVWRTAALTAPLGEQLPDAIAFAGSIADTDGVDHYRIVGGDRLLWASGETTFDVAPQRLAGIIRRRIAAVFPQLGQVEIAQTFSAAVGMTVHGMPQVGELRPGLWVASGFGRQGLATTAIAGRLIARGLTHSDERWKLFSPFDLVWAGGTIGRIVGQGVYFATREGALAAGALARYRERAAARTRVRDARAEVKQEERRARVALLRAAEAANVPPPNAPSRRPVPPPSPELEHHHHHH | not soluble
MAANEGNQPIPPEEEKEISSLLESIKIGKTSLKYRCFYLYDDKMTDLTEEQKETLKKLKLYQKEYYDYESKFEYELFLLRQKYHDLYGPIYDKRREALVGNGEAKIGTPNLPEFWLRALRNNNTVSHVIEDHDEEILVYLNDIRCDYIKKNKEKKEGFILSFYFATNPFFSNSVLTKTYHMKCVDCDNEPVLLHTEATVIDWYDNKNILKKNVVKKQHNKNSREVKTVQQTVNRDSFFHFFTSHKVPNSNVIKQLSKHEVAQLEMIIEGDYEVALTIKERIIPYAVDYYLGIIIESESNSIVSDVDSSYSSSENNSNYNSYESNNSAYNDENSNVDTNEYDDNEEEEEGAKSNEDPLTS | soluble
AIALTYIILVLHLQNHVWEDVTVHNSSLPPLAIKHPECLGLLHQLERSTDVWIQHYCILKDGCLYFYASIRSTQASGGLYLQGYSVSEQTHGFEQPVIELKPSSEEFKTFYFCAENKTENQRWIAALKTSIKKWLPLDQAIQEFMSRPLEETRM | soluble
MKKQHDTIIVLDFGSQYNQLIARRIREFGVYSELHPHTITAEEIKAMNPKGIIFSGGPNSVYGEGALHCDEKIFDLGLPIFGICYGMQLMTQQFGGTVERANHREYGKAVLKVENESKLYANLPEEQVVWMSHGDLVTGLPEGFVVDATSESCPIAGMSNEAKNLYGVQFHPEVRHSEHGNDLIKNFVFGVCGCSEGWNMENFIEVELEKIRETVGDKKVLCALSGGVDSSVVAVLIHKAIGDQLTCIFVDHGLLRKGEAEGVMKTFSEGFHMNVIKVDAKERFMNKLKGVEDPEQKRKIIGNEFIYVFDDEASKLEGMDFLAQGTLYTDIVESGTATAQTIKSHHNVGGLPEDMQFKLIEPLNTLFKDEVRVLGSELGIPDEIVWRQPFPGPGLGIRVLGEITEEKLEIVRESDAILREEIIKAGLDREIWQYFTALPGMRSVGVMGDERTYDYTVGIRAVTSIDGMTADWARIPWDVLEKISVRIVNEVKHVNRIVYDVTSKPPATIEWE | not soluble
MGSDKIHHHHHHMSHIIKIFPSNIEFSGREDESILDAALSAGIHLEHSCKAGDCGICESDLLAGEVVDSKGNIFGQGDKILTCCCKPKTALELNAHFFPELAGQTKKIVPCKVNSAVLVSGDVMTLKLRTPPTAKIGFLPGQYINLHYKGVTRSYSIANSDESNGIELHVRNVPNGQMSSLIFGELQENTLMRIEGPCGTFFIRESDRPIIFLAGGTGFAPVKSMVEHLIQGKCRREIYIYWGMQYSKDFYSALPQQWSEQHDNVHYIPVVSGDDAEWGGRKGFVHHAVMDDFDSLEFFDIYACGSPVMIDASKKDFMMKNLSVEHFYSDAFTASNNIEDNL | not soluble
MGSDKIHHHHHHMMISLYSAATGMSAQQFKLDTIANNLANVDTTGYKKVRAEFQDLLYQYVKNAGTPTAATSSLPTGLYVGHGVRTAATTRIFTLGNFEQTGNALDLAIAGDGFFQIQLQDGRIAYTRDGSFKMDSEGRIVTSNGLLLVPEITIPENAVSINVSPDGIVSAELQDGTIQELGTITLVRFVNPSGLKSIGDNLYIATPASGDPIEGVPGQDGFGAIKQGFLEKSNVDVVREMVDMITAQRAYEFNSRVIQTADEMLRTATNVKR | not soluble
MGLCVSKGSTASSPQHYAVRYTEQVTPSPSPSVASTSPSLHDSTAIGSPLARRSVLLPHEVQQAAYQLAMRLNGRAIEDASDRKRLVDATATVHETRLALHRGRGKVDSDLRLSNGRSATYSSLSYCLGEDDENLLAGSALAAGAGNCDHNAAINTRRHAVRMEDGGQMMTVRDYEQTHLYALYQPPNSAEADESTVVLDSWGDGPAVLLRDSHWAESYGTSTHVIERFDKPDATDALARTNAFRAEIENPQTALHANARELETAFLANPAPGDIFSAMPVIAPHLAESTRRRLQECSPRTRNVLAADAARDAYGLDDAQANSPRTTKAILKEAKRLDALGRPPLSW | not soluble
MIGYQIYVRSFRDGNLDGVGDFRGLKNAVSYLKELGIDFVWLMPVFSSISFHGYDVVDFYSFKAEYGSEREFKEMIEAFHDSGIKVVLDLPIHHTGFLHTWFQKALKGDPHYRDYYVWANKETDLDERREWDGEKIWHPLEDGRFYRGLFGPFSPDLNYDNPQVFDEMKRLVLHLLDMGVDGFRFDAAKHMRDTIEQNVRFWKYFLSDLKGIFLAEIWAEARMVDEHGRIFGYMLNFDTSHCIKEAVWKENTRVLIESIERAVIAKDYLPVNFTSNHDMSRLASFEGGFSKEKIKLSISILFTLPGVPLVFYGDELGMKGVYQKPNTEVVLDPFPWNESMCVEGQTFWKWPAYNGPFSGISVEYQKRDPDSILSHTLGWTRFRKENQWIDRAKLEFLCKEDKFLVYRLYDDQHSLKVFHNLSGEEVVFEGVKMKPYKTEVV | soluble
MVAAWNRWDLSGIIKHWSPDIVHYSEDNEVSSADMVKLMEGGLKAFPDLQLEMKSIMAEEDRVALRITVTATHQGEFMGVQPTGQRVSWHLVEELRFVDGKVVEHWDVINMRPLLVRLGKLPDVPKVVLEASA | soluble
MVIMVNTEYIPGKRIVKVFGTIWGITVRSRGLGGNLVAGLRSLAGGEIKEYTKMLSDARNTAMERLQSAAEQIGANAVINVRFDSSDIGQVMTEIVAYGTAVLVE | soluble
MIGSTSDGLVPGNTDMPATPTTALTALRTPHPPTGGESMHPRTRTAPALLFAVCLTALAAYPAAADDPVPTTERVSVTLDGAQIDDPSYRPQLTSKGGVVYTSDGPVWSTDHNGVSDAYRNSERVSYNMGAARSYDPSACHTARMIAFVSDRTPAGGTTPSVYVRNTPVGKLSYASHGYQGVPFTWAGQPAMSADCQWMAFSATLPATPDHVEQPRVYRYRIYDGTIEQVSPDSADGSRAAVRPSISADGRYVAYQSSIPHPGGPANDSDIYVRDLETGTLEKASVGRHGRPADRASTGPSLSADGRHVAFDSYASNLAPGDTNGTVNVFVRDLDAGTTRLVKGAGRHAYTAEAALSGDGLHLAYVSAGIRGSRGVPAVYLRDLATGRTRLISVDTRGHRNDRAAGNPSVNPDGTAVAFDSASPDLVPGDTNGTVDVFLRRLGSPEALEHHHHHH | soluble
MGSDKIHHHHHHMQLLKELCSIHAPSGNEEPLKDFILEYIRSNAGSWSYQPVIYADNDLQDCIVLVFGNPRTAVFAHMDSIGFTVSYNNHLHPIGSPSAKEGYRLVGKDSNGDIEGVLKIVDEEWMLETDRLIDRGTEVTFKPDFREEGDFILTPYLDDRLGVWTALELAKTLEHGIIAFTCWEEHGGGSVAYLARWIYETFHVKQSLICDITWVTEGVEAGKGVAISMRDRMIPRKKYVNRIIELARQTDIPFQLEVEGAGASDGRELQLSPYPWDWCFIGAPEKDAHTPNECVHKKDIESMVGLYKYLMEKL | not soluble

— the DeepSol protein solubility set
